Results taken from PMC7534208.

Target: transportin 1 (TNPO1) (human (endogenous in HeLa)) (UniProt Q92973)
Experiment: proximity ligation

UniProt Q92973, sequence (Q92973 whole entry): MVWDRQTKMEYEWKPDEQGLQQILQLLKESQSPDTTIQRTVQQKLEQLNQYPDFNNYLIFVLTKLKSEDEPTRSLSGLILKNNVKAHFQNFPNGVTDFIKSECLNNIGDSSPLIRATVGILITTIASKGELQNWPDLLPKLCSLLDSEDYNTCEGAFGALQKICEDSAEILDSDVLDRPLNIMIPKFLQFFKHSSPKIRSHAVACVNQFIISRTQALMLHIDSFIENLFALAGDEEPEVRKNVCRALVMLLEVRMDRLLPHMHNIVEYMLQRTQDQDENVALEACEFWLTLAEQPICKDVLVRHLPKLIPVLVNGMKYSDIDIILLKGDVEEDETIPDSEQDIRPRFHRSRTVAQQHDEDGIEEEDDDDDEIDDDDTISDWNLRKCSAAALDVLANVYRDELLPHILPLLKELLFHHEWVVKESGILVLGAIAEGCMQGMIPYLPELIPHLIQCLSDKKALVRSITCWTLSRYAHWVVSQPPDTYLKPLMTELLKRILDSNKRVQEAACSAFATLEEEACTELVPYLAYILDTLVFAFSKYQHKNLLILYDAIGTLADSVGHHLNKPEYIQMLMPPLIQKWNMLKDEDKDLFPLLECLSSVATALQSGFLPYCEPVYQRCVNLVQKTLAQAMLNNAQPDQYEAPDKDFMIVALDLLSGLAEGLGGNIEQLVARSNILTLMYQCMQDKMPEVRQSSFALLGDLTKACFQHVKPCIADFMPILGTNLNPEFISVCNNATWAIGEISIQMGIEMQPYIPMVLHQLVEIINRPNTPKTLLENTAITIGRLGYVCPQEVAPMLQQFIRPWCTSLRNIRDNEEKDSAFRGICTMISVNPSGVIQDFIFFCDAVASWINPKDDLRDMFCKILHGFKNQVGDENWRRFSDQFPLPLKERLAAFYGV

HIV-1 Rev (regulator of expression of virion proteins), HA-tagged (from UniProt P04618 1-116) (natural protein)
PLA puncta per cell (puncta per cell): 26
